# Measurements taken from the RNAGym collection of RNA variant scans (doi:10.1073/pnas.2313332121).
# Variants at the floor of the assay were thinned out.
# B1: TPR 5TU (parent)
# chain: GGAUCUUCUCGAUCUAACAAAAAAGACAAAUCUGCCACAAAGCUUGAGAGCAUCUUCGGAUGCAGAGGCGGCAGCCUUCGGUGGCGCGAUAGCGCCAACGUUCUCAACUAUGACACGCAAAACGCGUGCUCCGUUGAAUGGAGUUUAUCAUG
# Variants of: B1
# Assay: polymerase ribozyme fitness, log enrichment relative to wild type (log ratio); higher = more active; in vitro selection for triplet polymerase activity
# Method in brief: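 Both subunits of a heterodimeric triplet polymerase ribozyme were given their own mutant library, built by PCR and transcribed. Each library was annealed with a biotinylated primer, the partner subunit and triplets, incubated frozen at −7 °C, and its extended constructs gel-excised, captured on streptavidin beads and amplified by RT-PCR, all in one round done in triplicate. Fitness is the logarithm of genotype enrichment relative to wild-type enrichment, with replicates averaged by inverse-variance weighting. That logarithm is base 2, and Illumina-sequenced genotypes needed ≥10 input reads and ≥1 read per output.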
row,Variant,polymerase ribozyme fitness (log ratio)
1,A52C G84A U130C,-0.715
2,U53A C85U A137G A142C,-3.93
3,C51A A52G U56G C79A,≤ -4.2
4,A52C G70A,-3.92
5,U53A U56G A115U A120G,-2.77
6,C51A A60G A89U,-1.65
7,C51U G94U,-1.45
8,A52G C125U C131U G143U U146G,≤ -4.2
9,A52G G83U C96A U101C G124A U145A C149U,-2.95
10,A52U C76U G86C G126C G152U,≤ -4.2
11,A52G C85U,-0.204
12,A52G C85G,-2.16
13,U53A U55A C96A U127C A138U,≤ -4.2
14,A52C C85A C93U C96G A121C U146C,≤ -4.2
15,A52U A60G C76U A89U C96U,-3.8
16,C51U G86C,-2.98
17,U53A G83A C103U C132U,-3.25
18,A52G G83A A121G,-0.142
19,C51U G58C G62U C69U C96G,-3.67
20,C51U G143U,-2.3
21,A52G G58C G59C C96G A150U,-3.59
22,C51U C85G A106G,-2.8
23,A52C C96A C118G C125A,-2.23
24,A52C U53G C72U G83A G124A,≤ -4.2

row,Variant,polymerase ribozyme fitness (log ratio)
1,U53A C149U,-1.57
2,U53A U61A C85U A97U C108U,≤ -4.2
3,U53A C85G G133C A150C,≤ -4.2
4,A52C C85U,-1.81
5,A52G C79G,-3.71
6,C51G C95U,-2.73
7,U53A C54U C85G,-2.55
8,C51U C79U,-3.01
9,A52U U53G G88C A91C,≤ -4.2
10,A52U G74A G80C C95U A147C,≤ -4.2
11,U53A G58C A66C G84A A91G U102G A119U C132A,≤ -4.2
12,U53A C95A A120G,-1.57
13,C51U U53C C63U G74C G86C A89U A113U,≤ -4.2
14,C51G G83A U134C,-3.62
15,U53A C132U,-1.73
16,A52C U56A C96A A110G,-3.99
17,A52G U53G,-3.21
18,A52G G62A C76U U145A,-2.04
19,A52G G74C C87A A113U C125A G140U,≤ -4.2
20,C51A U55G C95U C105A G117U,≤ -4.2
21,C51U U53G C93G U127C,≤ -4.2
22,A52G A142U,-0.597
23,C51U G140U,-2.55
24,C51G A60G,-1.74

row,Variant,polymerase ribozyme fitness (log ratio)
1,A52U C87A A97U U127C A142C,≤ -4.2
2,U53A C93G A98G,≤ -4.2
3,A52U G68A U82G G133U A137C A142C,≤ -4.2
4,A52C G80C G84U C93U,≤ -4.2
5,A52C U61A G65A C95A G141U,-2.36
6,A52U G94A G133U G143U,-3.88
7,U53A G88U,≤ -4.2
8,A52G G70A C96A U102G C129G G143A U146A,≤ -4.2
9,C51A C95U A97U,-2.64
10,A52C G67A G74U G86U C93U A115G,≤ -4.2
11,A52G G84A G94U G143A,≤ -4.2
12,U53A A91G G126U G140U,≤ -4.2
13,C51U C116G G140C,-4.07
14,C51U U61A G84U,-2.8
15,A52G G71C C95A C131A U139A,≤ -4.2
16,C51G U55G C108A A119U G124A G141A U146A,≤ -4.2
17,A52U U56A G83C G84A C99G A106U U144A,≤ -4.2
18,C51U A52G C76A A89G A97C C105U A119C G141U,≤ -4.2
19,C51U U139G U144A,0.259
20,A52G U56G G86A C95U A142C,≤ -4.2
21,A52C G80C G83U,≤ -4.2
22,A52U A89U C96A,-2.98
23,A52C G59A,-1.18
24,A52C A66G C72A A97U C99A,≤ -4.2

row,Variant,polymerase ribozyme fitness (log ratio)
1,U53A G152U,-3.33
2,A52G G59A G92A,-3.59
3,A52C G58C G88U,≤ -4.2
4,U53A G83U A147C,-1.91
5,C51A C72U G74C C93A G141A,≤ -4.2
6,U53C G58A C99G,-0.95
7,C51U G92A,-3.5
8,U53A G70A G88A C96U C123U,≤ -4.2
9,A52G G86A C93A G143A,≤ -4.2
10,U53A C75U G84C,-2.82
11,A52C C95U C99U,-3.18
12,A52U U61G G80C C87G G94U A121U,≤ -4.2
13,A52C C57U,-1.24
14,A52C C57G,-1.79
15,A52G C69G C85G A97U G126A G141U,≤ -4.2
16,U53A U61C C79G A115U A150U,≤ -4.2
17,A52C C57U U102G U146G,≤ -4.2
18,A52U C129U,-2.91
19,A52C C69A C87U U90C A142U,≤ -4.2
20,C51U G58A G124C,-1.29
21,C51U G84C C87A C95A A122C A137U G141C,≤ -4.2
22,A52G G141U U145C G152A,-2.27
23,A52G U55G G58A C95G U134A U139A,≤ -4.2
24,A52U U53A C57A G58C A89U,0.000593

row,Variant,polymerase ribozyme fitness (log ratio)
1,C51U C72U G80A C85A U109G,≤ -4.2
2,A52C A73G G84U A115G C123G G124C C129A,≤ -4.2
3,U53A G71C G88A,≤ -4.2
4,A52C G58C C85A,-3.96
5,C51G G94C C149U,-3.9
6,A52U U101G,-2.22
7,A52U C96U G100A A147C,≤ -4.2
8,C51G U56A G68A C93U A97G U104G G143A U146A,≤ -4.2
9,A52G C57A A66G G68C C93U U101G G112U G140C U145A,≤ -4.2
10,A52G G141U,1
11,U53C G58C C93U C96G G140A,-4.1
12,C51A G94C A107U,≤ -4.2
13,U53A U144A,-1.56
14,C51G G58U C93G C123U,≤ -4.2
15,A52G C57U C75G A91U C95G C123A,-4.05
16,C51G A115C A122U,-3.82
17,U53A G59A C85A G88A U151A,≤ -4.2
18,U53A C57G G74C C87A C93A C149A,≤ -4.2
19,C51G U55A,-2.88
20,A52C A66C A91C A115G,≤ -4.2
21,A52G C57A G58A G83U C95U,-0.758
22,C51U G84A G117C U135A,-0.541
23,U53A U148A,-3.17
24,U53A U148C,-3.4

row,Variant,polymerase ribozyme fitness (log ratio)
1,C51U C63U G83C U151C,≤ -4.2
2,U53A G136A,-0.321
3,A52C G71C,≤ -4.2
4,U53C C72U C132U,-3.52
5,U53A G71A C75G C76U G86A A107U C108U,≤ -4.2
6,A52G G92C G117U A137G U144A,≤ -4.2
7,U53A C76A G84C A122U,≤ -4.2
8,U53C C57G U61A G124A G128U,-4.14
9,A52C C132U,-2.24
10,U53A G86C A91U,≤ -4.2
11,U53A U82G G100A,≤ -4.2
12,A52G C69U G143A,-2.71
13,C51A A91G,-3.53
14,A52U C95U,-1.52
15,C51U C85U,-0.8
16,A52G A106C,-0.69
17,C51G C87U C114G,≤ -4.2
18,U53A G92C U102C,-3.58
19,C51A G94C,-1.47
20,C51U G141A,0.523
21,C51U C93G C116U G141A,-3.75
22,C51A C96U A97U,-2.73
23,U53A G86A A91C G128C,≤ -4.2
24,C51U G58U U82G C96U,-0.59

row,Variant,polymerase ribozyme fitness (log ratio)
1,C51U C69G G94C U146C,-1.9
2,C51A A52G G68A A142C U144A,≤ -4.2
3,C51U U55A C75A C85U U101A C114U A115G G124A,≤ -4.2
4,A52U U109G,-3.48
5,U53A G84U,-1.26
6,U53A G84A,-2.38
7,A52C C93U G94C,-3.36
8,C51U U134C,-0.745
9,A52C C87U A89C C99U,-4.14
10,A52C G152U,-3.45
11,A52C C118U G143A U144C,-3.94
12,U53A C57G C95G,-4.01
13,A52C G88A C95U C99U A110U,-4.07
14,U53A C96G,-2.55
15,U53A U55A C95A A98G C123U G143C,-3.34
16,A52C C85U A121C U134C A142C,-2.29
17,A52C C57A C69U C85U,-3.07
18,U53A C76U,-1.36
19,C51G C85G C125U A137C,≤ -4.2
20,A52U U77G G84C G128A G143A,≤ -4.2
21,U53A G59C A60G G84A,-1.76
22,C51A U56A C95A A98U,-1.46
23,A52C C108A,≤ -4.2
